Test results reported in patent US20070042946A1 (NATIONAL RESEARCH COUNCIL OF CANADA, published 2007).

B1: FE22 (peptide)
peptide: FEPRPQSHNDGDFEEIPEEYLQ
B2: FD22-K (peptide)
peptide: FDPRPQKHNDGDFEEIPEEYLQ
B3: WD22-SR-P (peptide)
peptide: WDPRPQSRNDGDFEPIPEEYLQ
B4: GS-AV22-I (peptide)
peptide: GSAVPRPQIHNDGDFEEIPEEYLQ
B5: GS-IQ22-I (peptide)
peptide: GSIQPRPQIHNDGDFEEIPEEYLQ
B6: FH22 (peptide)
peptide: FHPRPQSHNDGDFEEIPEEYLQ
B7: FE22-D (peptide)
peptide: FEPRPQDHNDGDFEEIPEEYLQ
B8: FD22-H (peptide)
peptide: FDPRPQHHNDGDFEEIPEEYLQ
B9: FN22 (peptide)
peptide: FNPRPQSHNDGDFEEIPEEYLQ
notes: Tested as recombinant peptide (FN22^(a), released by CNBr from the MFH fusion) and as synthetic peptide; also called FN22^(a) (recombinant preparation)
B10: FD22 (peptide)
peptide: FDPRPQSHNDGDFEEIPEEYLQ
notes: Tested as recombinant peptide (FD22^(a), released by CNBr from the MFH fusion) and as synthetic peptide; also called FD22^(a) (recombinant preparation)
B11: FD22-D (peptide)
peptide: FDPRPQDHNDGDFEEIPEEYLQ
notes: Synthetic
B12: FN22-I (peptide)
peptide: FNPRPQIHNDGDFEEIPEEYLQ
B13: IQ22-I (peptide)
peptide: IQPRPQIHNDGDFEEIPEEYLQ
B14: FQ22-M (peptide)
peptide: FQPRPQMHNDGDFEEIPEEYLQ
B15: WD22-R (peptide)
peptide: WDPRPQRHNDGDFEEIPEEYLQ
notes: Synthetic
B16: LD22 (peptide)
peptide: LDPRPQSHNDGDFEEIPEEYLQ
notes: Synthetic
B17: FD22-R (peptide)
peptide: FDPRPQRHNDGDFEEIPEEYLQ
notes: Synthetic
B18: WD22-SR-YP (peptide)
peptide: WDPRPQSRNDGDYEPIPEEYLQ

Tests used:
human α-thrombin [1] = target: T1, human α-thrombin (human, UniProt P00734 328-622); assay: cell-based or functional assay
human α-thrombin [2] = target: T1, human α-thrombin; assay: amidolytic assay, Tos-Gly-Pro-Arg-pNA hydrolysis by human α-thrombin, 25° C.
Procedure: Kinetics of thrombin-catalyzed hydrolysis of the chromogenic substrate Tos-Gly-Pro-Arg-p-nitroanilide were followed by absorbance at 405 nm on a Spectramax plate reader thermostated at either 25° C. or 37° C. according to the method of Maragnore et al (supra). The concentrations of Tos-Gly-Pro-Arg-p-nitroanilide ranged from 2 to 400 μM. […] The KM and Vₘₐₓ values were calculated accordingly and kcat values were determined by dividing Vₘₐₓ by the enzyme (thrombin) concentration. The inhibition assays were performed in the clotting buffer with a certain fixed concentration of α-thrombin (˜0.3 nM) such that linear progress curves were achieved within at least 15 min in the absence of the inhibition. The total volume of the solution was fixed at 200 μl. Reactions were initiated by addition of the chromogenic substrate to the wells containing thrombin and a certain concentration of the peptide inhibitors premixed for less than 2 min. Alternatively, the substrate was first mixed with the peptide inhibitor and the total volume was adjusted to 120 μL using the clotting buffer. Eighty microliters of human α-thrombin in the clotting buffer (˜0.3 nM final concentration) was added to initiate the reaction. The concentration of the peptides ranged from 0.5 nM to 10 μM. Kinetics data from initial rate experiments were used to construct Lineweaver-Burke plot; i.e. the relationship of (substrate concentration)⁻¹ versus (initial velocity)⁻¹ which. were analysed by linear regression with MicroCal Origin 4.1 program (MicroCal, MD) or using the GraphPad Prism software. The Kᵢ values of the inhibitors were determined using the equation: Kᵢ=[I]/{(SL₀/SL₁)−1}, where [0098] [I] is the inhibitor concentration, [0099] SL₀ is the slope of the reaction in the absence of inhibitors, and [0100] SL₁ is the slope of the reaction in the presence of the inhibitor. Alternatively, Dixon plots of inverse velocity versus the inhibitor concentrations were generated with the Sigmaplot™ software. Every Dixon plot contained an array of data corresponding to different substrate concentrations and the Kᵢ values were determined from the intersections. Following Peptide Cleavage by HPLC

bovine α-thrombin = bovine α-thrombin (bovine, UniProt P00735 318-625); assay: cell-based or functional assay
human α-thrombin [3] = target: T1, human α-thrombin; assay: amidolytic assay, Tos-Gly-Pro-Arg-pNA hydrolysis by human α-thrombin, 25° C.; recombinant peptide
Procedure: (§1) Kinetics of thrombin-catalyzed hydrolysis of the chromogenic substrate Tos-Gly-Pro-Arg-p-nitroanilide were followed by absorbance at 405 nm on a Spectramax plate reader thermostated at either 25° C. or 37° C. according to the method of Maragnore et al (supra). The concentrations of Tos-Gly-Pro-Arg-p-nitroanilide ranged from 2 to 400 μM. […] The KM and Vₘₐₓ values were calculated accordingly and kcat values were determined by dividing Vₘₐₓ by the enzyme (thrombin) concentration. The inhibition assays were performed in the clotting buffer with a certain fixed concentration of α-thrombin (˜0.3 nM) such that linear progress curves were achieved within at least 15 min in the absence of the inhibition. The total volume of the solution was fixed at 200 μl. […] Kinetics data from initial rate experiments were used to construct Lineweaver-Burke plot; i.e. the relationship of (substrate concentration)⁻¹ versus (initial velocity)⁻¹ which. were analysed by linear regression with MicroCal Origin 4.1 program (MicroCal, MD) or using the GraphPad Prism software. The Kᵢ values of the inhibitors were determined using the equation: Kᵢ=[I]/{(SL₀/SL₁)−1}, where [0098] […] Every Dixon plot contained an array of data corresponding to different substrate concentrations and the Kᵢ values were determined from the intersections. […]

human α-thrombin [4] = target: T1, human α-thrombin; assay: amidolytic assay, Tos-Gly-Pro-Arg-pNA hydrolysis by human α-thrombin, 25° C.; synthetic peptide
Procedure: as §1

Row | Binder | IC50 (DCT), clotting assay, 37° C. (human α-thrombin [1]) | Ki (human α-thrombin [2]) | further results
1 | B1 | 0.08 µM |  | 
2 | B2 | 0.06 µM |  | 
3 | B3 | 0.053 µM |  | 
4 | B4 | 0.033 µM | 0.041 µM | 
5 | B5 | 0.01 µM | > 0.4 µM | 
6 | B6 | > 0.15 µM |  | 
7 | B7 | > 0.125 µM |  | 
8 | B8 | 0.07 µM |  | 
9 | B9 |  |  | IC50 (DCT), clotting assay, 37° C.; recombinant peptide FN22^(a) (human α-thrombin [1]): 0.15 µM; IC50 (DCT), clotting assay, 37° C.; synthetic peptide (human α-thrombin [1]): 0.067 µM; IC50, clotting assay; recombinant peptide (bovine α-thrombin): 0.289 µM; Ki (human α-thrombin [3]): 0.1 µM; Ki (human α-thrombin [4]): 0.08 µM
10 | B10 |  |  | IC50 (DCT), clotting assay, 37° C.; recombinant peptide FD22^(a) (human α-thrombin [1]): 0.05 µM; IC50 (DCT), clotting assay, 37° C.; synthetic peptide (human α-thrombin [1]): 0.045 µM; Ki (human α-thrombin [3]): 0.055 µM; Ki (human α-thrombin [4]): 0.048 µM
11 | B11 | 0.053 µM | 0.058 µM | 
12 | B12 | 0.045 µM | 0.36 µM | 
13 | B13 | 0.039 µM | 0.049 µM | 
14 | B14 | 0.011 µM | 0.064 µM | 
15 | B15 | 0.022 µM | 0.017 µM | 
16 | B16 | 0.228 µM | 0.26 µM | 
17 | B17 | 0.032 µM | 0.045 µM | 
18 | B18 | 0.032 µM |  | 
